From US7468258 come the findings set out here.

In the data set the target is T1, recombinant His-tagged VWF73 peptide substrate labeled with two fluoresceins.
T1 chain: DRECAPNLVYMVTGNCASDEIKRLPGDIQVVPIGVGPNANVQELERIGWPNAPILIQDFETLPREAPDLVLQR

B1: ADAMTS13 (A Disintegrin-like And Metalloprotease with ThromboSpondin type 1 motif) (protein)
chain: AAGGILHLELLVAVGPDVFQAHQEDTERYVLTNLNIGAELLRDPSLGAQFRVHLVKMVILTEPEGAPNITANLTSSLLSVCGWSQTINPEDDTDPGHADLVLYITRFDLELPDGNRQVRGVTQLGGACSPTWSCLITEDTGFDLGVTIAHEIGHSFGLEHDGAPGSGCGPSGHVMASDGAAPRAGLAWSPCSRRQLLSLLSAGRARCVWDPPRPQPGSAGHPPDAQPGLYYSANEQCRVAFGPKAVACTFAREHLDMCQALSCHTDPLDQSSCSRLLVPLLDGTECGVEKWCSKGRCRSLVELTPIAAVHGRWSSWGPRSPCSRSCGGGVVTRRRQCNNPRPAFGGRACVGADLQAEMCNTQACEKTQLEFMSQQCARTDGQPLRSSPGGASFYHWGAAVPHSQGDALCRHMCRAIGESFIMKRGDSFLDGTRCMPSGPREDGTLSLCVSGSCRTFGCDGRMDSQQVWDRCQVCGGDNSTCSPRKGSFTAGRAREYVTFLTVTPNLTSVYIANHRPLFTHLAVRIGGRYVVAGKMSISPNTTYPSLLEDGRVEYRVALTEDRLPRLEEIRIWGPLQEDADIQVYRRYGEEYGNLTRPDITFTYFQPKPRQAWVWAAVRGPCSVSCGAGLRWVNYSCLDQARKELVETVQCQGSQQPPAWPEACVLEPCPPYWAVGDFGPCSASCGGGLRERPVRCVEAQGSLLKTLPPARCRAGAQQPAVALETCNPQPCPARWEVSEPSSCTSAGGAGLALENETCVPGADGLEAPVTEGPGSVDEKLPAPEPCVGMSCPPGWGHLDATSAGEKAPSPWGSIRTGAQAAHVWTPAAGSCSVSCGRGLMELRFLCMDSALRVPVQEELCGLASKPGSRREVCQAVPCPARWQYKLAACSVSCGRGVVRRILYCARAHGEDDGEEILLDTQCQGLPRPEPQEACSLEPCPPRWKVMSLGPCSASCGLGTARRSVACVQLDQGQDVEVDEAACAALVRPEASVPCLIADCTYRWHVGTWMECSVSCGDGIQRRRDTCLGPQAQAPVPADFCQHLPKPVTVRGCWAGPCVGQGTPSLVPHEEAAAPGRTTATPAGASLEWSQARGLLFSPAPQPRRLLPGPQENSVQSSACGRQHLEPTGTIDMRGPGQADCAVAIGRPLGEVVTLRVLESSLNCSAGDMLLLWGRLTWRKMCRKLLDMTFSSKTNTLVVRQRCGRPGGGVLLRYGSQLAPETFYRECDMQLFGPWGEIVSPSLSPATSNAGGCRLFINVAPHARIAIHALATNMGAGTEGANASYILIRDTHSLRTTAFHGQQVLYWESESSQAEMEFSEGFLKAQASLRGQYWTLQSWVPEMQDPQSWKGKEGT
With B1, the “fluorescence of the recombinant peptide during incubation (FRET self-quenching cleavage assay, 96 well plate, fluorometer)” value was “With normal pooled plasma (PNP), there is steady increase of fluorescence over time”.
